# Results as given in patent publication US7303752B2, “Hookworm vaccine” (The George Washington University, priority 2001, dated 2007).
# Several values for one entry are separate records, joined by “and”; a condition that tells them apart may be missing. Equal entries are not always repeated.
# Legend:
# [1] = test system: recombinant Ac-CP-2; experiment: Proteolytic activity of recombinant Ac-CP-2 against Z-Phe-Arg-AMC; type: biochemical, Ancylostoma caninum
# Procedure: Purified, recombinant Ac-CP-2 was assessed for proteolytic activity using the fluorogenic peptidyl substrate Z-Phe-Arg-aminomethyl coumarin (AMC) (Bachem). The pH optimum of Ac-CP-2 was assessed using Z-Phe-Arg-AMC at different pH values according to published protocols. The cysteine protease inhibitor E64 was included in some assays at a final concentration of 5 μM. Recombinant Ac-CP-2 was treated with PNGase F and O-glycosidase, according to the manufacturer's instructions (Enzymatic CarboRelease kit, QA-Bio), under denaturing conditions to remove any N-linked and O-linked oligosaccharides.
# Canine IgG was purified from sera of vaccinated dogs using protein A-agarose (Amersham Biosciences) as previously described. Purified IgG (10-500 ng) was incubated with 1.0 μg of recombinant Ac-CP-2 for 45 mins prior to assessing proteolytic activity as described above.
# [2] = test system: anti-ASP-2 antibodies; experiment: ELISA of canine IgG1, IgG2, IgE after Ac-ASP-2/AS03 vaccination (Example 12); type: in vivo, dog
# Procedure: This study was conducted and reported in compliance with the intent of the Good Laboratory Practice Regulations (F.R. Vol. 43, No. 247, pp. 60013-60025, Dec. 22, 1978 and subsequent amendments). The study was audited by Quality Assurance while in progress to assure compliance with GLP regulations, adherence to the protocol and standard operating procedures. The data and final report were audited by Quality Assurance to assure that the report accurately described study conduct and results. The vaccine trial was designed to test Ac-ASP-2 formulated with Adjuvant System 03 (AS03) 44 obtained from GlaxoSmithKline. The rationale for selecting AS03 as an adjuvants is discussed elsewhere 37. The ten purpose bred beagles were randomized into two arms: immunized with Ac-ASP-2 (SEQ ID NO: 20) or adjuvant only (control). To make six doses of Ac-ASP-2 (SEQ ID NO: 20) formulated with AS03, 600 μg of recombinant protein (0.3 ml of Ac-ASP-2 (SEQ ID NO: 20) at a concentration of 2 mg.ml^−1) was mixed with 1.2 ml of 20 mM Tris-HCl, 0.5 M NaCl, pH 7.9 and 1.5 ml of AS03; the contents of the tube were vortex mixed for 30 seconds then shaken at low speed for 10 minutes. […]
# Beagles were immunized with formulated Ac-ASP-2 (SEQ ID NO: 20) as previously described^37. […] Each animal's specific antibody response was evaluated by indirect ELISA using serum taken prior to the infective challenge^37. […]
# [3] = test system: antibody to recombinant proteins; experiment: Pre-challenge antibody titer ELISA, trial with Ac-ASP-2, Ac-API, Ac-MEP-1, Ac-APR-1 in AS03; type: in vivo, dog
# Procedure: (§1) The vaccine trial was designed to test Ac-API, Ac-ASP-2, Ac-MEP-1, Ac-APR-1 formulated with Adjuvant System 03 (AS03) obtained from GlaxoSmithKline (GSK). The rationale for selecting AS03 as an adjuvants is discussed elsewhere (Stoute et al, 1997). The ten purpose bred beagles were randomized into five arms: immunized with the adjuvant-formulated recombinant proteins or adjuvant only (control). To make six doses of antigen formulated with AS03, […] of recombinant protein (0.3 ml of antigen at a concentration of 2 mg.ml^−1) was mixed with 1.2 ml of 20 mM Tris-HCl, 0.5 M NaCl, pH 7.9 and 1.5 ml of AS03; the contents of the tube were vortex mixed for 30 seconds then shaken at low speed for 10 minutes. Dogs were immunized with 100 g of formulated antigen in a final volume of 0.5 ml. ASO3 only control was prepared as described above, with PBS included instead of antigen. Formulation of GSK adjuvants were conducted according to the protocol provided by GSK. All injections were performed intramuscularly (IM). Test and control articles were prepared on the day of injection. All animals received 4 immunizations approximately 3 weeks apart.
# Beagles were immunized with formulated Ac-ASP-2 as previously described (Loukas et al, 2004). The vaccines were administered IM three times beginning at age 62+/−4 days. Boosts were administered to the dogs at intervals of 21 days. Blood was drawn at least once every 21 days and serum was separated from cells by centrifugation. Each animal's specific antibody response was evaluated by indirect ELISA using serum taken prior to the infective challenge (Loukas et al, 2004). Recombinant Ac-ASP-2 was coated onto microtiter plates at a concentration of 5 g.ml^−1. Dog sera were titrated between 1:100 and 1:2×10^6 to determine endpoint titers. Anti-canine IgG1, IgG2 and IgE antibodies conjugated to horse-radish peroxidase (Bethyl Laboratories) were used at a dilution of 1:1,000.
# [4] = test system: A. caninum; experiment: Canine vaccine trial with Ac-ASP-2, Ac-API, Ac-MEP-1, Ac-APR-1 in AS03, footpad challenge with 500 A. caninum L3; type: in vivo, dog
# Procedure: as §1, with “The ten purpose bred beagles were randomized into five arms: immunized with the adjuvant-formulated recombinant proteins or adjuvant only (control).” left out
# A. caninum larvae were cultured from eggs collected in the feces of infected dogs. All hookworms in the infective challenge were approximately equal age (17±7 days post hatching). The species identity of the infective larvae were validated using PCR. All dogs were infected by the footpad method with the same dose of 500 L3 of A. caninum (Zhan et al, 2001). Larval challenge occurred on one of three consecutive days (at age 120+/−9 days). Fourteen-sixteen days after the final immunization, dogs were anesthetized using a combination of ketamine and xylazine (20 mg.kg^−1 and 10 mg.kg^−1 respectively), and 500 A. caninum L3 in a final volume of […] were applied to the footpad.
molecule,measurement,setting,value
CC(C)C[C@H](NC(=O)[C@H]1O[C@@H]1C(=O)O)C(=O)NCCCCN=C(N)N [E64],% reduction in proteolytic activity,"[1]; 1.0 μg Ac-CP-2, Z-Phe-Arg-AMC, 50 ng pooled IgG or E64 5 μM, mean of triplicate",100 ± 0%
same,"cleavage of the peptide substrate, in words",[1]; final concentration of 5 μM,completely ablated
"Ac-ASP-2: A. caninum secreted protein 2, SEQ ID NO: 20; recombinant from Sf9 insect cells, given with AS03 (protein, listed as Ancylostoma caninum) MLVLVPLLALLAVSVHGNSMRCGNNGMTDEARQKFLDVHNSYRSMVAKGQAKDAISGNAPKAAKMKKMIYDCNVESTAMQNAKKCVFAHSHRKGVGENIWMSTARQMDKAQAAQQASDGWFSELAKYGVGQENKLTTQLWNRGVMIGHYTQMVWQESYKLGCYVEWCSSMTYGVCQYSPQGNNMNSLTYEKGNPCTKDSDCGSNASCSAGEALCVVRG","IgG1 and IgG2 antibody titers to recombinant Ac-ASP-2, in words",[2]; immunized canines,strong
same,"IgE titers to Ac-ASP-2, in words",[2]; test canines,one log lower than the IgG1 and IgG2 titers
same,"Pre-challenge antibody titer, IgE, GEOMEAN",[3]; geometric mean of group,100
same,"Pre-challenge antibody titer, IgG1, GEOMEAN",[3]; geometric mean of group,"10,837"
same,"Pre-challenge antibody titer, IgG2, GEOMEAN",[3]; geometric mean of group,"20,950"
same,"IgG1 and IgG2 antibody titers to recombinant Ac-ASP-2, in words",[3]; immunized canines,strong
same,"Pre-challenge antibody titer, IgE",[3]; individual dogs,100
same,"Pre-challenge antibody titer, IgG1",[3]; individual dogs,"13,500 (4×) and 4,500"
same,"Pre-challenge antibody titer, IgG2",[3]; individual dogs,"40,500 (2×) and 13,500 (3×)"
same,"IgE titers to Ac-ASP-2, in words",[3]; test canines,one log lower than the IgG1 and IgG2 titers
same,"worm burdens, Maximum",[4]; 5 dogs,226.00
same,"worm burdens, Minimum",[4]; 5 dogs,89.00
same,"worm burdens, Mean","[4]; 5 dogs, ASO3 control 203.8000",166.0000
same,"worm burdens, Median","[4]; 5 dogs, ASO3 control 215.0000",174.0000
same,"worm burden, Colon, Male, Average","[4]; group average, AS03 control 5",4
same,"worm burden, Colon, Female, Average","[4]; group average, AS03 control 9",5
same,"worm burden, Intestine, Female, Average","[4]; group average, AS03 control 95",81
same,"worm burden, Intestine, Male, Average","[4]; group average, AS03 control 96",76
same,"worm burden, Total, Average","[4]; group average, AS03 control 204",166
same,"worm burden, Colon, Female",[4]; individual dogs,5 and 4 and 3 and 8 and 6
same,"worm burden, Colon, Male",[4]; individual dogs,5 and 4 and 1 (2×) and 9
same,"worm burden, Intestine, Female",[4]; individual dogs,87 and 101 and 115 and 72 and 28
same,"worm burden, Intestine, Male",[4]; individual dogs,62 and 72 and 107 and 85 and 54
same,"worm burden, Total",[4]; individual dogs,160 and 181 and 226 and 174 and 89
